The record followed here is the Immune Epitope Database (IEDB).

Assay [1] addresses HLA-A*24:02. Put plainly: IEDB peptide-MHC binding, purified MHC/competitive/fluorescence; ≥ and ≤ were set here for values at or beyond the usual limits of such assays. The conditions noted are these: source organism: Zaire ebolavirus.
Assay [2] addresses HLA-B*07:02. Described as above. Particulars: source organism: Zaire ebolavirus.
Assay [3] deals with HLA-B*08:01. The assay is described as above. The conditions noted are these: source organism: Zaire ebolavirus.
Assay [4] addresses HLA-B*15:01. Described as above. The conditions noted are these: source organism: Zaire ebolavirus.
The target in assay [5] is HLA-A*02:03. The assay can be described thus: IEDB peptide-MHC binding, purified MHC/direct/fluorescence; filed as Kd, often an IC50 or EC50 that approximates it; ≥ and ≤ were set here for values at or beyond the usual limits of such assays.
The target of assay [6] is HLA-A*02:11. Described as above.
For assay [7], the target named is HLA-A*02:12. The description is as above.
Assay [8] addresses HLA-A*02:16. The assay is described as above.
Assay [9] deals with HLA-A*02:19. Described as above.
The target of assay [10] is HLA-A*03:01. The assay is described as above.
In assay [11] the target is HLA-A*23:01. Described as above.
The target of assay [12] is HLA-A*24:03. The description is as above.
The target in assay [13] is HLA-A*68:02. The assay is described as above.
In assay [14] the target is HLA-B*07:02. Described as above. The conditions noted are these: source organism: Zaire ebolavirus.
Assay [15] deals with HLA-A*02:01. Put plainly: IEDB peptide-MHC binding, purified MHC/competitive/fluorescence; filed as Kd, often an IC50 or EC50 that approximates it; ≥ and ≤ were set here for values at or beyond the usual limits of such assays.
For assay [16], the target named is HLA-A*26:01. The assay is described as above.
Assay [17] has as its target HLA-A*69:01. The description is as above.
Assay [18] concerns the target HLA-B*15:01. Described as above.
In assay [19] the target is HLA-B*15:17. The description is as above.
The target of assay [20] is HLA-B*18:01. The description is as above.
Assay [21] deals with HLA-B*27:03. The description is as above.
Assay [22] deals with HLA-B*39:01. The description is as above.
Assay [23] has as its target HLA-B*46:01. Described as above.
Assay [24] concerns the target HLA-B*51:01. The assay is described as above.
In assay [25] the target is HLA-B*57:01. The assay is described as above.
The target of assay [26] is HLA-A*02:01. The assay can be described thus: IEDB peptide-MHC binding, purified MHC/competitive/fluorescence; ≥ and ≤ were set here for values at or beyond the usual limits of such assays. The conditions noted are these: source organism: Zaire ebolavirus.
The target in assay [27] is HLA-A*29:02. Put plainly: IEDB peptide-MHC binding, purified MHC/direct/fluorescence; filed as Kd, often an IC50 or EC50 that approximates it; ≥ and ≤ were set here for values at or beyond the usual limits of such assays.
In assay [28] the target is HLA-B*27:05. Described as above. The conditions noted are these: source organism: Reston ebolavirus - Reston.
Assay [29] addresses HLA-B*40:01. The description is as above. Particulars: source organism: Ebola virus - Eckron (Zaire, 1976).
[30] abbreviates: source organism: Zaire ebolavirus.
[31] abbreviates: source organism: Reston ebolavirus.

One may read the IC50 as the concentration that gives 50% inhibition. A lower IC50 goes with inhibition by little substance. For orientation: Kd means the concentration at which binding is half-saturated. A low value points to a tighter complex. Regarding RDRFKRTSF, the half-inhibitory concentration (IC50) in [1] is 18.9 µM; in assay [2], at least 74.2 µM; in assay [3], at least 114 µM; in assay [4] it was 36.4 µM. The equilibrium dissociation constant (Kd) in [5] (setting [30]), in assay [6] (setting [30]), in [7] (setting [30]), in [8] (setting [30]), in assay [9] (setting [30]) and in assay [10] (setting [30]) was at least 20 µM in each case. The dissociation constant Kd in assay [11] (setting [30]), in assay [12] (setting [30]), in assay [13] (setting [30]), in assay [14], in assay [15] (setting [30]) and in assay [16] (setting [30]) was at least 20 µM each time. For the same sequence, the Kd in [17] (setting [30]), in assay [18] (setting [30]), in assay [19] (setting [30]), in [20] (setting [30]), in [21] (setting [30]) and in [22] (setting [30]) was at least 20 µM throughout. Further, the Kd in assay [23] (setting [30]), in assay [24] (setting [30]) and in [25] (setting [30]) was at least 20 µM each time.

With HPLARTAKV, the IC50 was at least 113 µM in assay [26], 3.11 µM in [2] and 54.5 µM in [3]. Also, the Kd in assay [5] (setting [30]), in assay [6] (setting [30]), in assay [7] (setting [30]), in [8] (setting [30]), in assay [9] (setting [30]) and in assay [10] (setting [30]) was at least 20 µM throughout. Moreover, the Kd is at least 20 µM in assay [11] (setting [30]); at least 20 µM in assay [12] (setting [30]); at least 20 µM in [27] (setting [30]); at least 20 µM in assay [13] (setting [30]); 0.0459 µM in assay [14]; at least 20 µM in [15] (setting [30]). Moreover, the equilibrium dissociation constant (Kd) in [16] (setting [30]), in assay [18] (setting [30]), in assay [19] (setting [30]), in assay [20] (setting [30]), in assay [21] (setting [30]) and in [22] (setting [30]) was at least 20 µM each time. Further, the Kd in assay [23] (setting [30]) is at least 20 µM; in [24] (setting [30]), 0.201 µM; in assay [25] (setting [30]), at least 20 µM.

Regarding RRELSKEKL, the Kd in [5] (setting [31]), in assay [6] (setting [31]), in assay [7] (setting [31]), in [8] (setting [31]), in [9] (setting [31]) and in [10] (setting [31]) was at least 20 µM each time. Further, the Kd in [11] (setting [31]), in assay [12] (setting [31]), in [27] (setting [31]), in assay [13] (setting [31]), in [28] and in [15] (setting [31]) was at least 20 µM each time. Besides, the Kd in assay [16] (setting [31]), in assay [17] (setting [31]), in assay [18] (setting [31]), in [19] (setting [31]), in [20] (setting [31]) and in [21] (setting [31]) was at least 20 µM throughout. In addition, the Kd in assay [22] (setting [31]), in [23] (setting [31]), in [24] (setting [31]) and in assay [25] (setting [31]) was at least 20 µM in each case.

For KEGKLQCRI, the equilibrium dissociation constant (Kd) in assay [5] (setting [30]), in [6] (setting [30]), in assay [7] (setting [30]), in [8] (setting [30]), in assay [9] (setting [30]) and in assay [10] (setting [30]) was at least 20 µM throughout. Besides, the Kd in assay [11] (setting [30]), in assay [12] (setting [30]), in assay [27] (setting [30]), in assay [13] (setting [30]), in assay [29] and in [15] (setting [30]) was at least 20 µM each time. Also, the Kd in assay [16] (setting [30]), in assay [17] (setting [30]), in assay [18] (setting [30]), in assay [19] (setting [30]), in assay [20] (setting [30]) and in assay [21] (setting [30]) was at least 20 µM in each case. Also, the Kd in assay [22] (setting [30]), in assay [23] (setting [30]), in assay [24] (setting [30]) and in assay [25] (setting [30]) was at least 20 µM each time.
